Test results: the supplement of paper PMC10567573

B1: TOR1AIP2 (parent)
chain: YTSSQKVSPIQIDGAGRTWQDSDT
B2: ISL2 (parent)
chain: HYPFLGAMGDHSKKKPGTAMCVGC

Variants of: B1
Assay: protein stability index of a GFP-peptide fusion (GPS, HEK-293T) (PSI 1-6); higher = more stable
Conditions: c terminus: a fixed tail appended
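Further: lentivirally expressed fusions sorted by FACS into six bins by GFP to DsRed ratio, PSI derived from sequencing read proportions per bin multiplied by bin number.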

Protein stability index: each site, then its substitutions
S22: M 2.18; Y 2.51; W 2.85; N 3.55; V 3.17; P 3.67; R 3.29; Q 3.64; T 3.63
T24: N 3.15; E 5; R 2.95; C 3.52; H 3.51; K 3.29; W 2.87; P 3.55; M 2.58; A 3.08; D 4.12; Q 2.63; V 2.86; S 3.85; Y 2.17
D23: M 2.06; N 3.41; I 1.44; W 1.55; T 2.17; F 2.04; Q 3.41; H 2.16; P 2.64; G 2.72; C 2.83; S 2.73; R 2.48; A 3.06; Y 2.81; K 2.55

Variants of: B2
Assay: as above
Conditions: c terminus: a fixed tail appended

Protein stability index, by site and new letter:
Y2: Q 3.04; R 2.94; S 3.33; C 2.53; P 3.58; F 2.55; L 3.37; E 3.62; K 2.83; W 2.16; A 3.43; G 3.54; H 2.48; M 2.97; I 2.79; N 4.08; D 4.76; T 4.07; V 2.6
S12: P 2.27; A 2.53; W 2.52; E 3.03; N 2.92; T 2.59; L 1.99; K 2.56; I 1.8; M 1.92; V 2.58; R 2.72; C 3.95; H 2.73; Y 2.48; G 2.56; Q 3.07; F 2.08; D 3.26
H1: Y 1.99; N 3.84; I 1.95; F 2.02; R 2.7; K 2.62; A 3.6; L 2.01; C 2.11; P 2.75; T 2.69; G 2.64; Q 2.92; W 2.59; D 3.15; S 2.58; E 2.05; M 1.82; V 2.11
M8: C 3.33; L 3.55; R 3.19; A 4.25; Q 3.16; D 3.52; T 2.82; I 2.3; K 3; E 3.81; N 2.94; S 2.52; G 3.85; P 3.07; W 2.17; V 2.96; F 2.55; H 2.8; Y 2.51
P3: I 2.26; C 2.84; Y 1.69; R 2.35; S 2.27; N 2.5; M 2.18; W 1.76; D 1.96; G 3.08; H 2.31; E 3.04; Q 3.11; K 2.15; A 2.32; F 1.93; V 2.06; T 2.04; L 1.77
K14: L 2.44; D 3; V 2.73; F 1.98; G 2.34; T 2.58; S 2.51; N 2.8; Q 2.45; W 1.51; I 2.78; R 2.67; C 4.25; H 3.07; A 2.29; E 3.44; M 2.91; Y 1.74; P 2.98
A7: E 3.79; M 2.31; Y 1.84; T 2.93; W 1.95; L 2.45; R 2.31; C 3.85; K 2.86; F 1.79; V 2.37; D 3.68; S 2.74
